The values below come from PMC5735849.

Experiment [1] deals with T1, NP (ΔNPNTD) NTD (Zaire ebolavirus), P18272.
T1 chain: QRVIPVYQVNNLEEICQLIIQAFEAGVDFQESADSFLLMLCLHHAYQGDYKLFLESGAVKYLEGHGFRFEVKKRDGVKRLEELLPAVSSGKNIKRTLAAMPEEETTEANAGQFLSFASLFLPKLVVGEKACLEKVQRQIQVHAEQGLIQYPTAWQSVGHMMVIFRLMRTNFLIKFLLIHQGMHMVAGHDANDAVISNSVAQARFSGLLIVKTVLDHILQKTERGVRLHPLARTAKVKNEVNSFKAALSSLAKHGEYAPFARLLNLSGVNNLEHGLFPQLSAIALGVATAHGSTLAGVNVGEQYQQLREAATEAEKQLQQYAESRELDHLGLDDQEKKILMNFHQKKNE
Particulars: modification not given.

Experiment [2] concerns the target T1, NP (ΔNPNTD) NTD (Zaire ebolavirus), …. Nature of the experiment: competition. Particulars: modification not given.

By Kd is commonly meant the constant that tells how readily two partners part at equilibrium. Read a low Kd as higher affinity. In general, IC50 refers to the point on the concentration scale where inhibition reaches its midpoint. Low readings indicate higher potency, high ones lower potency. In experiment [1], MPGPELSGWISEQLMTGRIPVSDIFCDIE [VP35 NPBP 20-48, Q05127] came in with a Kd of 32 nM. The same molecule yielded an IC50 in experiment [2] of 262 nM.
